Data set [1] deals with HeLa Kyoto. Briefly: solubility in G1/S (NP-40 vs SDS abundance) (log2 ratio); higher = more soluble. The note with it: cell cycle stage: G1/S.
The test system of data set [2] is HeLa Kyoto. Briefly: solubility change mitosis vs G1/S (difference of NP-40 vs SDS log2 ratios) (log2 ratio difference); higher = more soluble in mitosis.
The test system of data set [3] is HeLa Kyoto. Briefly: melting temperature (median over replicates), in situ; higher = more thermally stable.
The test system of data set [4] is HeLa Kyoto. Description: thermal stability score vs G1/S (z-score of summed log2 fold changes over temperatures); higher = more thermally stable than in G1/S.
The mark [5] stands for this setting: cell cycle stage: early G1 (4.5 h after nocodazole release).
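Wherever melting temperature (median over replicates), in situ is given: HeLa Kyoto cells synchronized by double thymidine or nocodazole block, proteins quantified by TMT10plex mass spectrometry, three independent biological replicates.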
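Wherever solubility change mitosis vs G1/S (difference of NP-40 vs SDS log2 ratios) is given: synchronized HeLa Kyoto cells (double thymidine block for G1/S, nocodazole release for mitosis), protein amounts in NP-40 versus SDS lysates quantified by mass spectrometry, three biological replicates.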
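Wherever solubility in G1/S (NP-40 vs SDS abundance) is given: HeLa Kyoto cells arrested at G1/S by double thymidine block, proteins quantified by TMT10plex mass spectrometry in mild NP-40 versus SDS extracts, three biological replicates.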
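Wherever thermal stability score vs G1/S (z-score of summed log2 fold changes over temperatures) is given: synchronized HeLa Kyoto cells, proteins quantified by TMT10plex mass spectrometry, three biological replicates, mitosis taken 0.5 h after nocodazole release, G1/S directly after double thymidine block.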

Turning to “MPSATSHSGSGSKSSGPPPPSGSSGSEAAAGAGAAAPASQHPATGTGAVQTEAMKQILGVIDKKLRNLEKKKGKLDDYQERMNKGERLNQDQLDAVSKYQEVTNNLEFAKELQRSFMALSQDIQKTIKKTARREQLMREEAEQKRLKTVLELQYVLDKLGDDEVRTDLKQGLNGVPILSEEELSLLDEFYKLVDPERDMSLRLNEQYEHASIHLWDLLEGKEKPVCGTTYKVLKEIVERVFQSNYFDSTHNHQNGLCEEEEAASAPAVEDQVPEAEPEPAEEYTEQSEVESTEYVNRQFMAETQFTSGEKEQVDEWTVETVEVVNSLQQQPQAASPSVPEPHSLTPVAQADPLVRRQRVQDLMAQMQGPYNFIQDSMLDFENQTLDPAIVSAQPMNPTQNMDMPQLVCPPVHSESRLAQPNQVPVQPEATQVPLVSSTSEGYTASQPLYQPSHATEQRPQKEPIDQIQATISLNTDQTTASSSLPAASQPQVFQAGTSKPLHSSGINVNAAPFQSMQTVFNMNAPVPPVNEPETLKQQNQYQASYNQSFSSQPHQVEQTELQQEQLQTVVGTYHGSPDQSHQVTGNHQQPPQQNTGFPRSNQPYYNSRGVSRGGSRGARGLMNGYRGPANGFRGGYDGYRPSFSNTPNSGYTQSQFSAPRDYSGYQRDGYQQNFKRGSGQSGPRGAPRGRGGPPRPNRGMPQMNTQQVN [CAPRIN1]”, the “solubility in G1/S (log2)” value with HeLa Kyoto [1] was -0.0442. In the data set with HeLa Kyoto [2], the “solubility change mitosis (log2)” value turned out to be 0.14. Moreover, the melting temperature in the data set with HeLa Kyoto [3] (cell cycle stage: G1/S) turned out to be 54.8 °C; with HeLa Kyoto [3] (cell cycle stage: mitosis), 54.9 °C. Moreover, the thermal stability score in the data set on HeLa Kyoto [4] (setting [5]) was -0.0976; in the data set on HeLa Kyoto [4] (cell cycle stage: mitosis) it was -1.01.
Take “MTPEFDEEVVFENSPLYQYLQDLGHTDFEICSSLSPKTEKCTTEGQQKPPTRVLPKQGILLKVAETIKSWIFFSQCNKKDDLLHKLDIGFRLDSLHTILQQEVLLQEDVELIELLDPSILSAGQSQQQENGHLPTLCSLATPNIWDLSMLFAFISLLVMLPTWWIVSSWLVWGVILFVYLVIRALRLWRTAKLQVTLKKYSVHLEDMATNSRAFTNLVRKALRLIQETEVISRGFTLVSAACPFNKAGQHPSQHLIGLRKAVYRTLRANFQAARLATLYMLKNYPLNSESDNVTNYICVVPFKELGLGLSEEQISEEEAHNFTDGFSLPALKVLFQLWVAQSSEFFRRLALLLSTANSPPGPLLTPALLPHRILSDVTQGLPHAHSACLEELKRSYEFYRYFETQHQSVPQCLSKTQQKSRELNNVHTAVRSLQLHLKALLNEVIILEDELEKLVCTKETQELVSEAYPILEQKLKLIQPHVQASNNCWEEAISQVDKLLRRNTDKKGKPEIACENPHCTVVPLKQPTLHIADKDPIPEEQELEAYVDDIDIDSDFRKDDFYYLSQEDKERQKREHEESKRVLQELKSVLGFKASEAERQKWKQLLFSDHAVLKSLSPVDPVEPISNSEPSMNSDMGKVSKNDTEEESNKSATTDNEISRTEYLCENSLEGKNKDNSSNEVFPQGAEERMCYQCESEDEPQADGSGLTTAPPTPRDSLQPSIKQRLARLQLSPDFTFTAGLAAEVAARSLSFTTMQEQTFGGEEEEQIIEENKNEIEEK [VEZT]”: the “solubility in G1/S (log2)” value in the data set on HeLa Kyoto [1] was found to be 0.0301. For the same sequence, in the data set on HeLa Kyoto [2], the “solubility change mitosis (log2)” value is -0.229. For the same sequence, the melting temperature was 52.6 °C with HeLa Kyoto [3] (cell cycle stage: G1/S) and 52 °C in the data set with HeLa Kyoto [3] (cell cycle stage: mitosis). The thermal stability score with HeLa Kyoto [4] (setting [5]) is -1.08; in the data set on HeLa Kyoto [4] (cell cycle stage: mitosis), -3.04.
With “MAAAAVSESWPELELAERERRRELLLTGPGLEERVRAAGGQLPPRLFTLPLLHYLEVSGCGSLRAPGPGLAQGLPQLHSLVLRRNALGPGLSPELGPLPALRVLDLSGNALEALPPGQGLGPAEPPGLPQLQSLNLSGNRLRELPADLARCAPRLQSLNLTGNCLDSFPAELFRPGALPLLSELAAADNCLRELSPDIAHLASLKTLDLSNNQLSEIPAELADCPKLKEINFRGNKLRDKRLEKMVSGCQTRSILEYLRVGGRGGGKGKGRAEGSEKEESRRKRRERKQRREGGDGEEQDVGDAGRLLLRVLHVSENPVPLTVRVSPEVRDVRPYIVGAVVRGMDLQPGNALKRFLTSQTKLHEDLCEKRTAATLATHELRAVKGPLLYCARPPQDLKIVPLGRKEAKAKELVRQLQLEAEEQRKQKKRQSVSGLHRYLHLLDGNENYPCLVDADGDVISFPPITNSEKTKVKKTTSDLFLEVTSATSLQICKDVMDALILKMAEMKKYTLENKEEGSLSDTEADAVSGQLPDPTTNPSAGKDGPSLLVVEQVRVVDLEGSLKVVYPSKADLATAPPHVTVVR [LRRC47]”, the “solubility in G1/S (log2)” value in the data set with HeLa Kyoto [1] is 0.238. In addition, the “solubility change mitosis (log2)” value with HeLa Kyoto [2] was determined as 0.0172. Moreover, the melting temperature with HeLa Kyoto [3] (cell cycle stage: G1/S) turned out to be 53 °C; in the data set on HeLa Kyoto [3] (cell cycle stage: mitosis), 52.2 °C. Besides, the thermal stability score in the data set on HeLa Kyoto [4] (setting [5]) was -0.334; with HeLa Kyoto [4] (cell cycle stage: mitosis), -1.47.
As for “MTHEEHHAAKTLGIGKAIAVLTSGGDAQGMNAAVRAVVRVGIFTGARVFFVHEGYQGLVDGGDHIKEATWESVSMMLQLGGTVIGSARCKDFREREGRLRAAYNLVKRGITNLCVIGGDGSLTGADTFRSEWSDLLSDLQKAGKITDEEATKSSYLNIVGLVGSIDNDFCGTDMTIGTDSALHRIMEIVDAITTTAQSHQRTFVLEVMGRHCGYLALVTSLSCGADWVFIPECPPDDDWEEHLCRRLSETRTRGSRLNIIIVAEGAIDKNGKPITSEDIKNLVVKRLGYDTRVTVLGHVQRGGTPSAFDRILGSRMGVEAVMALLEGTPDTPACVVSLSGNQAVRLPLMECVQVTKDVTKAMDEKKFDEALKLRGRSFMNNWEVYKLLAHVRPPVSKSGSHTVAVMNVGAPAAGMNAAVRSTVRIGLIQGNRVLVVHDGFEGLAKGQIEEAGWSYVGGWTGQGGSKLGTKRTLPKKSFEQISANITKFNIQGLVIIGGFEAYTGGLELMEGRKQFDELCIPFVVIPATVSNNVPGSDFSVGADTALNTICTTCDRIKQSAAGTKRRVFIIETMGGYCGYLATMAGLAAGADAAYIFEEPFTIRDLQANVEHLVQKMKTTVKRGLVLRNEKCNENYTTDFIFNLYSEEGKGIFDSRKNVLGHMQQGGSPTPFDRNFATKMGAKAMNWMSGKIKESYRNGRIFANTPDSGCVLGMRKRALVFQPVAELKDQTDFEHRIPKEQWWLKLRPILKILAKYEIDLDTSDHAHLEHITRKRSGEAAV [PFKM]”, in the data set with HeLa Kyoto [1], the “solubility in G1/S (log2)” value amounted to 0.0079. Also, the “solubility change mitosis (log2)” value with HeLa Kyoto [2] was -0.181. Also, the melting temperature with HeLa Kyoto [3] (cell cycle stage: G1/S) was found to be 59.6 °C; with HeLa Kyoto [3] (cell cycle stage: mitosis), 59.7 °C. Further, the values for the thermal stability score with HeLa Kyoto [4] (setting [5]) and with HeLa Kyoto [4] (cell cycle stage: mitosis) were -1.59 and -1.13, respectively.
As for “MEEKPGQPQPQHHHSHHHPHHHPQQQQQQPHHHHHYYFYNHSHNHHHHHHHQQPHQYLQHGAEGSPKAQPKPLKHEQKHTLQQHQETPKKKTGYGELNGNAGEREISLKNLSSDEATNPISRVLNGNQQVVDTSLKQTVKANTFGKAGIKTKNFIQKNSMDKKNGKSYENKSGENQSVDKSDTIPIPNGVVTNNSGYITNGYMGKGADNDGSGSESGYTTPKKRKARRNSAKGCENLNIVQDKIMQQETSVPTLKQGLETFKPDYSEQKGNRVDGSKPIWKYETGPGGTSRGKPAVGDMLRKSSDSKPGVSSKKFDDRPKGKHASAVASKEDSWTLFKPPPVFPVDNSSAKIVPKISYASKVKENLNKTIQNSSVSPTSSSSSSSSTGETQTQSSSRLSQVPMSALKSVTSANFSNGPVLAGTDGNVYPPGGQPLLTTAANTLTPISSGTDSVLQDMSLTSAAVEQIKTSLFIYPSNMQTMLLSTAQVDLPSQTDQQNLGDIFQNQWGLSFINEPSAGPETVTGKSSEHKVMEVTFQGEYPATLVSQGAEIIPSGTEHPVFPKAYELEKRTSPQVLGSILKSGTTSESGALSLEPSHIGDLQKADTSSQGALVFLSKDYEIESQNPLASPTNTLLGSAKEQRYQRGLERNDSWGSFDLRAAIVYHTKEMESIWNLQKQDPKRIITYNEAMDSPDQ [NUFIP2]”, the “solubility in G1/S (log2)” value in the data set with HeLa Kyoto [1] was -0.731. Besides, the “solubility change mitosis (log2)” value with HeLa Kyoto [2] came out at 0.593. For the same sequence, the melting temperature is 53.8 °C in the data set on HeLa Kyoto [3] (cell cycle stage: G1/S) and 52.4 °C with HeLa Kyoto [3] (cell cycle stage: mitosis). Moreover, the thermal stability score is -0.0647 with HeLa Kyoto [4] (setting [5]) and -0.912 with HeLa Kyoto [4] (cell cycle stage: mitosis).
For the sequence “MPRRKKKVKEVSESRNLEKKDVETTSSVSVKRKRRLEDAFIVISDSDGEEPKEENGLQKTKTKQSNRAKCLAKRKIAQMTEEEQFALALKMSEQEAREVNSQEEEEEELLRKAIAESLNSCRPSDASATRSRPLATGPSSQSHQEKTTDSGLTEGIWQLVPPSLFKGSHISQGNEAEEREEPWDHTEKTEEEPVSGSSGSWDQSSQPVFENVNVKSFDRCTGHSAEHTQCGKPQESTGRGSAFLKAVQGSGDTSRHCLPTLADAKGLQDTGGTVNYFWGIPFCPDGVDPNQYTKVILCQLEVYQKSLKMAQRQLLNKKGFGEPVLPRPPSLIQNECGQGEQASEKNECISEDMGDEDKEERQESRASDWHSKTKDFQESSIKSLKEKLLLEEEPTTSHGQSSQGIVEETSEEGNSVPASQSVAALTSKRSLVLMPESSAEEITVCPETQLSSSETFDLEREVSPGSRDILDGVRIIMADKEVGNKEDAEKEVAISTFSSSNQVSCPLCDQCFPPTKIERHAMYCNGLMEEDTVLTRRQKEAKTKSDSGTAAQTSLDIDKNEKCYLCKSLVPFREYQCHVDSCLQLAKADQGDGPEGSGRACSTVEGKWQQRLKNPKEKGHSEGRLLSFLEQSEHKTSDADIKSSETGAFRVPSPGMEEAGCSREMQSSFTRRDLNESPVKSFVSISEATDCLVDFKKQVTVQPGSRTRTKAGRGRRRKF [UIMC1]”, the “solubility in G1/S (log2)” value in the data set with HeLa Kyoto [1] is -0.219. Besides, in the data set with HeLa Kyoto [2], the “solubility change mitosis (log2)” value came to 0.107. The melting temperature stood at 51.5 °C in the data set on HeLa Kyoto [3] (cell cycle stage: G1/S) and 52.5 °C in the data set on HeLa Kyoto [3] (cell cycle stage: mitosis). Besides, the thermal stability score is 1.12 in the data set with HeLa Kyoto [4] (setting [5]) and 1.21 in the data set on HeLa Kyoto [4] (cell cycle stage: mitosis).
